From the supplement of paper PMC7877785
± gives the uncertainty stated by the source.

Experiment: self-splicing fitness, log relative to wild type (ln ratio); higher = more splicing; Tetrahymena group I intron in knt gene, E. coli kanamycin selection, DiMSum; sequences stand for … in CUCUCU…GGAGGGAAAAGUUAUCAGGCAUGCACCUGGUAGCUAGUCUUUAAACCAAUAGAUUGCAUCGGUUUAAAAGGCAAGACCGUCAAAUUGCGGGAAAGGGGUCAACAGCCGUUCAGUACCAAGUCUCAGGGGAAACUUUGAGAUGGCCUUGCAAAGGGUAUGGUAAUAAGCUGACGGACAUGGUCCUAACCACGCAGCCAAGUCCUAAGUCAACAGAUCUUCUGUUGAUAUGGAUGCAGUUCACAGACUAAAUGUCGGUCGGGGAAGAUGUAUUCUUCUCAUAAGAUAUAGUCGGACCUCUCCUUAAUGGGAGCUAGCGGAUGAAGUGAUGCAACACUGGAGCCGCUGGGAACUAAUUUGUAUGCGAAAGUAUAUUGAUUAGUUUUGGAGUACUCGUGGUCG
Method in brief: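 DiMSum derived fitness as the error-weighted combination of fold changes across replicates, kanamycin versus no kanamycin, normalised to wild type. E. coli BL21(DE3) held the library, which randomised all eight P1ex-region intron nucleotides within the knt kanamycin-resistance gene on pET-22b(+). Six replicate transformations grew overnight at 37°C or 30°C on LB agar with or without 25 μg/mL kanamycin, also containing 100 μg/mL carbenicillin, 50 μM IPTG and 0.2% rhamnose, and pooled colonies were amplicon-sequenced on an Illumina HiSeq 2500.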

| Sequence | self-splicing fitness (ln) (30 °C) | self-splicing fitness (ln) (37 °C) |
| --- | --- | --- |
| GGUCAGCAAUAUUACGUCCG | -0.0947 ± 0.13 | -0.124 ± 0.19 |
| CGUUAGCAAUAUUACGUAAG | -0.652 ± 0.1 | -0.0337 ± 0.14 |
| UCCCAGCAAUAUUACGAUAU | -3.15 ± 0.18 | -1.74 ± 0.22 |
| AUACAGCAAUAUUACGUUCG | -1.69 ± 0.071 | -1.15 ± 0.093 |
| UUGCAGCAAUAUUACGUAAC | -3.38 ± 0.16 | -2.81 ± 0.21 |
| AUAUAGCAAUAUUACGCAUC | -2.63 ± 0.22 | -1.15 ± 0.26 |
| ACCGAGCAAUAUUACGGUUA | -1.33 ± 0.18 | -1.85 ± 0.17 |
| CUAUAGCAAUAUUACGGUGC | -3.69 ± 0.28 | -2.75 ± 0.29 |
| UCCGAGCAAUAUUACGGGAG | -3.81 ± 0.22 | -2.79 ± 0.19 |
| UGACAGCAAUAUUACGUGGC | -4.11 ± 0.28 | -3.11 ± 0.37 |
| ACCCAGCAAUAUUACGGCUG | -3.68 ± 0.2 | -2.06 ± 0.18 |
| ACUCAGCAAUAUUACGAACC | -0.758 ± 0.097 | -0.326 ± 0.1 |
| GGACAGCAAUAUUACGGUAU | -0.41 ± 0.066 | -0.343 ± 0.09 |
| ACAGAGCAAUAUUACGCCGA | -2.95 ± 0.48 | -2.76 ± 0.38 |
| GGGCAGCAAUAUUACGGAUC | -0.301 ± 0.057 | 0.486 ± 0.076 |
| AUAGAGCAAUAUUACGGCGC | -1.36 ± 0.096 | -0.282 ± 0.14 |
| CAAUAGCAAUAUUACGUCGA | -2.82 ± 0.21 | -2.96 ± 0.28 |
| CGUCAGCAAUAUUACGCAAC | -3.74 ± 0.3 | -2.47 ± 0.23 |
| GCUGAGCAAUAUUACGAGGU | -3.72 ± 0.29 | -1.74 ± 0.22 |
| GAACAGCAAUAUUACGGUCC | -4.14 ± 0.25 | -0.683 ± 0.13 |
| UACAAGCAAUAUUACGGUCC | -1.38 ± 0.18 | -1.34 ± 0.18 |

| Sequence | self-splicing fitness (ln) (30 °C) | self-splicing fitness (ln) (37 °C) |
| --- | --- | --- |
| UUCAAGCAAUAUUACGAACG | -4.29 ± 0.36 | -2.46 ± 0.25 |
| UGCCAGCAAUAUUACGGGGG | -3.83 ± 0.17 | -2.9 ± 0.17 |
| UUCCAGCAAUAUUACGACGU | -2.06 ± 0.18 | -2.18 ± 0.2 |
| AUGAAGCAAUAUUACGGACA | -0.277 ± 0.077 | 0.5 ± 0.11 |
| UGCGAGCAAUAUUACGUCGU | -3.64 ± 0.25 | -3.4 ± 0.37 |
| GAUAAGCAAUAUUACGUGUU | -2.67 ± 0.17 | -2.18 ± 0.14 |
| UACGAGCAAUAUUACGGAAC | -4.04 ± 0.42 | -3.02 ± 0.35 |
| UAGCAGCAAUAUUACGCUCA | -0.152 ± 0.095 | 0.307 ± 0.1 |
| GCCGAGCAAUAUUACGCCUA | -2.44 ± 0.2 | -1.58 ± 0.16 |
| AGGCAGCAAUAUUACGGAUC | -2.19 ± 0.1 | -0.495 ± 0.099 |
| UCAAAGCAAUAUUACGGGAC | -1.98 ± 0.2 | -1.75 ± 0.25 |
| GUCGAGCAAUAUUACGGUAU | -1.34 ± 0.084 | -0.615 ± 0.12 |
| GGCUAGCAAUAUUACGUGGA | -1.81 ± 0.14 | -0.667 ± 0.12 |
| UGUAAGCAAUAUUACGGUCU | -0.465 ± 0.089 | -0.33 ± 0.11 |
| AAAGAGCAAUAUUACGUGGC | -2.86 ± 0.23 | – |
| UUCGAGCAAUAUUACGAGUC | -2.82 ± 0.29 | -2.03 ± 0.45 |
| AAAAAGCAAUAUUACGUUAA | -2.66 ± 0.12 | -1.05 ± 0.093 |
| UGGCAGCAAUAUUACGCUCU | -2.8 ± 0.2 | -1.37 ± 0.16 |
| UAAAAGCAAUAUUACGGUCA | 0.0761 ± 0.086 | 0.333 ± 0.087 |
| CAUCAGCAAUAUUACGGUUC | -2.65 ± 0.14 | -0.935 ± 0.13 |
| AAGUAGCAAUAUUACGAUGC | -2.76 ± 0.16 | -0.209 ± 0.15 |
